Laboratory results as given in patent publication US20100260668A1 (published 2010).
Several values for one entry are separate records, joined by “and”; a condition that tells them apart may be missing. Identical values can stand only once. Each block holds one binder with its values, some of them ahead of it.

Key:
[1] = target: T1, his-tagged, recombinant RON protein (R&D Systems # 1947-MS) (UniProt Q04912 25-957, limits assumed); test: IgG-Fc capture ELISA, his-tagged RON; N-terminal VD
T1 construct: extracellular domain; also called MSP Receptor ECD-His tag

IGF2 (IGF-2) [2] = target: T2, IGF2 (IGF-2) (UniProt P01344 25-91); test: Direct Bind ELISA, antigen on plate; N-terminal VD; second value of IGF1/IGF2 cell
T2 construct: Bought reagent

IGF1 (IGF-I) [3] = target: T3, IGF1 (IGF-I) (UniProt P05019 49-118); test: Direct Bind ELISA, antigen on plate; N-terminal VD; first value of IGF1/IGF2 cell
T3 construct: Bought reagent

[4] = target: T4, biotin-labeled human DLL4 extracellular domain (human, UniProt Q9NR61 27-529, biotin-labeled); test: capture ELISA, DVD-Ig captured by anti-human Fc, biotin-labeled human DLL4 ECD; C-terminal VD
T4 construct: extracellular domain

biotinylated VEGF [5] = target: T5, biotinylated VEGF (UniProt P15692-4 27-191, limits assumed, biotinylated); test: capture ELISA, DVD-Ig captured by anti-human Fc, biotinylated VEGF; N-terminal VD
T5 sequence (P15692 other isoform, or with tags, fused parts or gaps limits assumed): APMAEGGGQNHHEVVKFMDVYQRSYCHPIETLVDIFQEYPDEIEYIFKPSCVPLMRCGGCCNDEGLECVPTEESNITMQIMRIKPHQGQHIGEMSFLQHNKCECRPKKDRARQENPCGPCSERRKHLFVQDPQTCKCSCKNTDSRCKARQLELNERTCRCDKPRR

[6] = target: T6, biotin-labeled human IGF1 (human, UniProt P05019 49-118, biotin-labeled); test: capture ELISA, antibody captured by anti-human Fc, biotin-labeled IGF1
[7] = target: T7, biotin-labeled human IGF2 (human, UniProt P01344 25-91, biotin-labeled); test: capture ELISA, antibody captured by anti-human Fc, biotin-labeled IGF2
IGF2 (IGF-2) [8] = target: T2, IGF2 (IGF-2); test: Direct Bind ELISA, antigen on plate; second value of IGF1/IGF2 cell
IGF1 (IGF-I) [9] = target: T3, IGF1 (IGF-I); test: Direct Bind ELISA, antigen on plate; first value of IGF1/IGF2 cell
[10] = target: T1, his-tagged, recombinant RON protein …; test: IgG-Fc capture ELISA, his-tagged RON
[11] = target: T8, IGF1R (antigen of the capture ELISA table) (UniProt P08069 31-932, limits assumed); test: antigen capture ELISA, IGF1R
T8 construct: No IGF1R capture ELISA method is described; also called IGFR

IGF1 (IGF-I) [12] = target: T3, IGF1 (IGF-I); test: Direct Bind ELISA, antigen on plate; C-terminal VD; first value of IGF1/IGF2 cell
IGF2 (IGF-2) [13] = target: T2, IGF2 (IGF-2); test: Direct Bind ELISA, antigen on plate; C-terminal VD; second value of IGF1/IGF2 cell
DLL4 (DLL4 ECD/His tag) = target: T9, DLL4 (DLL4 ECD/His tag) (UniProt Q9NR61 27-529, limits assumed); test: Direct Bind ELISA, antigen on plate
T9 construct: extracellular domain; Bought reagent

[14] = target: T4, biotin-labeled human DLL4 extracellular …; test: capture ELISA, antibody captured by anti-human Fc, biotin-labeled human DLL4 ECD
[15] = target: T4, biotin-labeled human DLL4 extracellular …; test: DLL4 capture ELISA, antibody captured by anti-human Fc, biotin-labeled human DLL4 ECD
[16] = target: T7, biotin-labeled human IGF2; test: capture ELISA, DVD-Ig captured by anti-human Fc, biotin-labeled IGF2; C-terminal VD
[17] = target: T6, biotin-labeled human IGF1; test: capture ELISA, DVD-Ig captured by anti-human Fc, biotin-labeled IGF1; C-terminal VD
biotinylated VEGF [18] = target: T5, biotinylated VEGF; test: VEGF capture ELISA, antibody captured by anti-human Fc, biotinylated VEGF

EC50 [1]: 2.5 nM
B1: DVD033 (bispecific antibody, human IgG1, kappa)
heavy: not shown
light: DVVMTQSPLSLPVTPGEPASISCRSSQSLLHSNGFNYVDWYLQKPGQSPHLLIYFGSYRASGVPDRFSGSGSGTDFTLKISRVEAEDVGVYYCMQALQTPPWTFGQGTKVEIRRTVAAPDIQMTQSPSSVSASVGDRVTITCRASQGISSWLAWYQQKPGKAPNLLIYEASSLQSGVPSRFGGSGSGTDFTLTISSLQPEDFATYYCQQANGFPWTFGQGTKVEIKRTVAAPSVFIFPPSDEQLKSGTASVVCLLNNFYPREAKVQWKVDNALQSGNSQESVTEQDSKDSTYSLSSTLTLSKADYEKHKVYACEVTHQGLSSPVTKSFNRGEC
notes: DVD-Ig; also called RON / HGF DVD-Ig; DVD033H

EC50 (IGF2 (IGF-2) [2]): 17.6 nM
EC50 (IGF1 (IGF-I) [3]): 2.54 nM
B2: DVD042 (IGF1,2 and VEGF (seq. 1) DVD-Ig) (bispecific antibody, IgG1)
VH: QVQLVQSGAEVKKPGASVKVSCKASGYTFTSYDINWVRQATGQGLEWMGWMNPNSGNTGYAQKFQGRVTMTRNTSISTAYMELSSLRSEDTAVYYCARDPYYYYYGMDVWGQGTTVTVSSASTKGPEVQLVESGGGLVQPGGSLRLSCAASGYTFTNYGMNWVRQAPGKGLEWVGWINTYTGEPTYAADFKRRFTFSLDTSKSTAYLQMNSLRAEDTAVYYCAKYPHYYGSSHWYFDVWGQGTLVTVSS
VL: QSVLTQPPSVSAAPGQKVTISCSGSSSNIENNHVSWYQQLPGTAPKLLIYDNNKRPSGIPDRFSGSKSGTSATLGITGLQTGDEADYYCETWDTSLSAGRVFGGGTKLTVLGQPKAAPDIQMTQSPSSLSASVGDRVTITCSASQDISNYLNWYQQKPGKAPKVLIYFTSSLHSGVPSRFSGSGSGTDFTLTISSLQPEDFATYYCQQYSTVPWTFGQGTKVEIKR
notes: HC vector V1 (wild-type hIgG1 constant), LC vector V4 (lambda signal peptide, kappa constant); also called DVD042H; DVD042L

EC50 [4]: 0.5 nM
EC50 (biotinylated VEGF [5]): 0.2 nM
B3: DVD043 (bispecific antibody, human IgG1, kappa)
heavy: not shown
light: DIQMTQSPSSLSASVGDRVTITCSASQDISNYLNWYQQKPGKAPKVLIYFTSSLHSGVPSRFSGSGSGTDFTLTISSLQPEDFATYYCQQYSTVPWTFGQGTKVEIKRTVAAPDIQMTQSPSSLSASVGDRVTITCRASQDVSTAVAWYQQKPGKAPKLLIYSASFLYSGVPSRFSGSGSGTDFTLTISSLQPEDFATTYYCQQSYTGTVTFGQGTKVEIKRTVAAPSVFIFPPSDEQLKSGTASVVCLLNNFYPREAKVQWKVDNALQSGNSQESVTEQDSKDSTYSLSSTLTLSKADYEKHKVYACEVTHQGLSSPVTKSFNRGEC
notes: DVD-Ig; also called VEGF / DLL4 DVD-Ig; DVD043H

EC50 [6]: 4.8 nM
EC50 [7]: 10 nM and 18.1 nM
B4: AB010 (antibody, human IgG1, lambda, V domains shown)
VH: QVQLVQSGAEVKKPGASVKVSCKASGYTFTSYDINWVRQATGQGLEWMGWMNPNSGNTGYAQKFQGRVTMTRNTSISTAYMELSSLRSEDTAVYYCARDPYYYYYGMDVWGQGTTVTVSS
VL: QSVLTQPPSVSAAPGQKVTISCSGSSSNIENNHVSWYQQLPGTAPKLLIYDNNKRPSGIPDRFSGSKSGTSATLGITGLQTGDEADYYCETWDTSLSAGRVFGGGTKLTVLG
notes: also called IGF1,2 parent antibody

EC50 (IGF2 (IGF-2) [8]): 10 nM and 18.1 nM
EC50 (IGF1 (IGF-I) [9]): 4.77 nM
B5: AB010 (anti-IGF1,2 parent antibody) (antibody, IgG1, V domains shown)
VH: QVQLVQSGAEVKKPGASVKVSCKASGYTFTSYDINWVRQATGQGLEWMGWMNPNSGNTGYAQKFQGRVTMTRNTSISTAYMELSSLRSEDTAVYYCARDPYYYYYGMDVWGQGTTVTVSS
VL: QSVLTQPPSVSAAPGQKVTISCSGSSSNIENNHVSWYQQLPGTAPKLLIYDNNKRPSGIPDRFSGSKSGTSATLGITGLQTGDEADYYCETWDTSLSAGRVFGGGTKLTVLG
notes: HC vector V1 (wild-type hIgG1 constant), LC vector V3 (lambda constant); also called AB010VH; AB010VL

EC50 [10]: 1.6 nM and 0.7 nM and 1.3 nM
B6: AB005 (antibody, human IgG1, kappa, V domains shown)
VH: EVQLVQSGGGLVKPGGSLRLSCAASGFTFSSYAMHWVRQAPGKGLEWVAVISYDGSNKYYADSVKGRFTISRDNSKNTLYLQMNSLRAEDTAVYYCARFSGWPNNYYYYGMDVWGQGTTVTVSS
VL: DVVMTQSPLSLPVTPGEPASISCRSSQSLLHSNGFNYVDWYLQKPGQSPHLLIYFGSYRASGVPDRFSGSGSGTDFTLKISRVEAEDVGVYYCMQALQTPPWTFGQGTKVEIRR

EC50 [11]: 0.3 nM
B7: AB011 (antibody, human IgG1, kappa, V domains shown)
VH: EVQLLESGGGLVQPGGSLRLSCTASGFTFSSYAMNWVRQAPGKGLEWVSAISGSGGTTFYADSVKGRFTISRDNSRTTLYLQMNSLRAEDTAVYYCAKDLGWSDSYYYYYGMDVWGQGTTVTVSS
VL: DIQMTQFPSSLSASVGDRVTITCRASQGIRNDLGWYQQKPGKAPKRLIYAASRLHRGVPSRFSGSGSGTEFTLTISSLQPEDFATYYCLQHNSYPCSFGQGTKLEIKR

EC50 (IGF1 (IGF-I) [12]): 381 nM
EC50 (IGF2 (IGF-2) [13]): 7.34 µM
B8: DVD041 (VEGF (seq. 1) and IGF1,2 DVD-Ig) (bispecific antibody, IgG1)
VH: EVQLVESGGGLVQPGGSLRLSCAASGYTFTNYGMNWVRQAPGKGLEWVGWINTYTGEPTYAADFKRRFTFSLDTSKSTAYLQMNSLRAEDTAVYYCAKYPHYYGSSHWYFDVWGQGTLVTVSSASTKGPQVQLVQSGAEVKKPGASVKVSCKASGYTFTSYDINWVRQATGQGLEWMGWMNPNSGNTGYAQKFQGRVTMTRNTSISTAYMELSSLRSEDTAVYYCARDPYYYYYGMDVWGQGTTVTVSS
VL: DIQMTQSPSSLSASVGDRVTITCSASQDISNYLNWYQQKPGKAPKVLIYFTSSLHSGVPSRFSGSGSGTDFTLTISSLQPEDFATYYCQQYSTVPWTFGQGTKVEIKRTVAAPQSVLTQPPSVSAAPGQKVTISCSGSSSNIENNHVSWYQQLPGTAPKLLIYDNNKRPSGIPDRFSGSKSGTSATLGITGLQTGDEADYYCETWDTSLSAGRVFGGGTKLTVLG
notes: HC vector V1 (wild-type hIgG1 constant), LC vector V5 (kappa signal peptide, lambda constant); also called DVD041H; DVD041L

EC50 (DLL4 (DLL4 ECD/His tag)): 0.31 nM
B9: AB015 (anti-DLL-4 (seq. 1) parent antibody) (antibody, IgG1, V domains shown)
VH: EVQLVESGGGLVQPGGSLRLSCAASGFTFTDNWISWVRQAPGKGLEWVGYISPNSGFTYYADSVKGRFTISADTSKNTAYLQMNSLRAEDTAVYYCARDNFGGYFDYWGQGTLVTVSS
VL: DIQMTQSPSSLSASVGDRVTITCRASQDVSTAVAWYQQKPGKAPKLLIYSASFLYSGVPSRFSGSGSGTDFTLTISSLQPEDFATTYYCQQSYTGTVTFGQGTKVEIKR
notes: HC vector V1 (wild-type hIgG1 constant), LC vector V2 (kappa constant); also called AB015VH; AB015VL

EC50 [14]: 0.03 nM
EC50 [15]: 0.15 nM and 0.18 nM and 0.14 nM
B10: AB015 (antibody, human IgG1, kappa)
heavy: not shown
light: DIQMTQSPSSLSASVGDRVTITCRASQDVSTAVAWYQQKPGKAPKLLIYSASFLYSGVPSRFSGSGSGTDFTLTISSLQPEDFATTYYCQQSYTGTVTFGQGTKVEIKRTVAAPSVFIFPPSDEQLKSGTASVVCLLNNFYPREAKVQWKVDNALQSGNSQESVTEQDSKDSTYSLSSTLTLSKADYEKHKVYACEVTHQGLSSPVTKSFNRGEC

EC50 [16]: 7.33 µM
EC50 (biotinylated VEGF [5]): 0.7 nM
EC50 [17]: 381 nM
B11: DVD041 (bispecific antibody, human IgG1, lambda)
heavy: not shown
light: DIQMTQSPSSLSASVGDRVTITCSASQDISNYLNWYQQKPGKAPKVLIYFTSSLHSGVPSRFSGSGSGTDFTLTISSLQPEDFATYYCQQYSTVPWTFGQGTKVEIKRTVAAPQSVLTQPPSVSAAPGQKVTISCSGSSSNIENNHVSWYQQLPGTAPKLLIYDNNKRPSGIPDRFSGSKSGTSATLGITGLQTGDEADYYCETWDTSLSAGRVFGGGTKLTVLGQPKAAPSVTLFPPSSEELQANKATLVCLISDFYPGAVTVAWKADSSPVKAGVETTTPSKQSNNKYAASSYLSLTPEQWKSHRSYSCQVTHEGSTVEKTVAPTECS
notes: DVD-Ig; also called VEGF / IGF1,2 DVD-Ig; DVD041H

EC50 (biotinylated VEGF [18]): 0.38 nM
B12: AB071 (antibody, human IgG1, kappa, L234A L235A, V domains shown)
VH: EVQLVESGGGLVQPGGSLRLSCAASGFTINASWIHWVRQAPGKGLEWVGAIYPYSGYTNYADSVKGRFTISADTSKNTAYLQMNSLRAEDTAVYYCARWGHSTSPWAMDYWGQGTLVTVSS
VL: DIQMTQSPSSLSASVGDRVTITCRASQVIRRSLAWYQQKPGKAPKLLIYAASNLASGVPSRFSGSGSGTDFTLTISSLQPEDFATYYCQQSNTSPLTFGQGTKVEIKR
